This assay addresses K-TM protein used for the affinity measurement with hFL (human). Put plainly: BLI; method not given; BLI is the only affinity method that the paper describes (Octet R8, SA chip, PBST); who was immobilised is not said. A general note: In BLI a coated tip is dipped into the sample, and binding shifts an interference pattern.

pKd: −log10 of the molar value.

In general, pKd refers to the negative decadic logarithm of the Kd, by convention in mol/L. A higher pKd goes with a low Kd. Regarding “hFL lectin (mannose-binding lectin, human recombinant protein)”, the pKd is 7.31.

For the origin of these results see publication PMC12767058.
